The source of these data is patent US5807698.

The target of the assay is human p33 CDK2 (human) (UniProt P24941).

human cyclin E, sequence (P24864 16-410 limits assumed): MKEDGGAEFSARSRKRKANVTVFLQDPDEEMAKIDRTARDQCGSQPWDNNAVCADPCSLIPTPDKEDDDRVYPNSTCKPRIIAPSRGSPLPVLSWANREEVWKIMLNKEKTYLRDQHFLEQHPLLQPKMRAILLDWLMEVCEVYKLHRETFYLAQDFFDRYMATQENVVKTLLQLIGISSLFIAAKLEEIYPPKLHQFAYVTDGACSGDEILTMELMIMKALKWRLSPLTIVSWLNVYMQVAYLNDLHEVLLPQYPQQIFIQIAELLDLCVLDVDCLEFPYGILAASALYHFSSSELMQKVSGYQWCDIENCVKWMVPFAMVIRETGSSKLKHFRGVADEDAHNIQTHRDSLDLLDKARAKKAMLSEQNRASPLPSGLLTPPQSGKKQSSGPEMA

For human cyclin E, the CDK2 histone H1 kinase activity in G1 cell extract came to 22 fold.
